Source: article PMC8828063, “High-resolution mapping of metal ions reveals principles of surface layer assembly in Caulobacter crescentus cells” (Structure(London, England:1993), 2022)

Target: the molecule itself
Assay: crystal structure; RsaA 30 mg/mL with 5 mM CaCl2; 0.07 M KSCN, 24% (w/v) PEG 8000, 0.075 M TAPS/NaOH pH 8.5, 19°C; stacked S-layer sheets in three-dimensional crystals; long-wavelength anomalous diffraction, molecular replacement with PDB 5N8P

B1: RsaA, S-layer protein of Caulobacter crescentus (wild type, full length) (natural protein, UniProt A0A0H3C8J1 1-1026, looked up)
chain: MAYTTAQLVTAYTNANLGKAPDAATTLTLDAYATQTQTGGLSDAAALTNTLKLVNSTTAVAIQTYQFFTGVAPSAAGLDFLVDSTTNTNDLNDAYYSKFAQENRFINFSINLATGAGAGATAFAAAYTGVSYAQTVATAYDKIIGNAVATAAGVDVAAAVAFLSRQANIDYLTAFVRANTPFTAAADIDLAVKAALIGTILNAATVSGIGGYATATAAMINDLSDGALSTDNAAGVNLFTAYPSSGVSGSTLSLTTGTDTLTGTANNDTFVAGEVAGAATLTVGDTLSGGAGTDVLNWVQAAAVTALPTGVTISGIETMNVTSGAAITLNTSSGVTGLTALNTNTSGAAQTVTAGAGQNLTATTAAQAANNVAVDGGANVTVASTGVTSGTTTVGANSAASGTVSVSVANSSTTTTGAIAVTGGTAVTVAQTAGNAVNTTLTQADVTVTGNSSTTAVTVTQTAAATAGATVAGRVNGAVTITDSAAASATTAGKIATVTLGSFGAATIDSSALTTVNLSGTGTSLGIGRGALTATPTANTLTLNVNGLTTTGAITDSEAAADDGFTTINIAGSTASSTIASLVAADATTLNISGDARVTITSHTAAALTGITVTNSVGATLGAELATGLVFTGGAGADSILLGATTKAIVMGAGDDTVTVSSATLGAGGSVNGGDGTDVLVANVNGSSFSADPAFGGFETLRVAGAAAQGSHNANGFTALQLGATAGATTFTNVAVNVGLTVLAAPTGTTTVTLANATGTSDVFNLTLSSSAALAAGTVALAGVETVNIAATDTNTTAHVDTLTLQATSAKSIVVTGNAGLNLTNTGNTAVTSFDASAVTGTGSAVTFVSANTTVGEVVTIRGGAGADSLTGSATANDTIIGGAGADTLVYTGGTDTFTGGTGADIFDINAIGTSTAFVTITDAAVGDKLDLVGISTNGAIADGAFGAAVTLGAAATLAQYLDAAAAGDGSGTSVAKWFQFGGDTYVVVDSSAGATFVSGADAVIKLTGLVTLTTSAFATEVLTLA
notes: RsaA, S-layer protein of Caulobacter crescentus CB15N (NA1000), 1,026 amino acid residues; RsaANTD is residues 1-250 and RsaACTD residues 251-1,026; Full-length protein went into crystallisation; also called SLP; wild-type RsaA; source: purified from C. crescentus CB15N (NA1000) cells by low pH exposure (HiTrap SP flow-through, HiTrap Q)
stoichiometry N: 6
